{
  "source": "patent US20090099193",
  "target": "TK substrate 1 (HTRF KinEASE-TK kit; Cisbio Inc.)",
  "data": [
    {"protein": "EML4-ALK fusion polypeptide v3 having the FLAG tag at the N-terminus (protein) MDGFAGSLDDSISAASTSDVQDRLSALESRVQQQEDEITVLKAALADVLRRLAISEDHVASVKKSVSSKGQPSPRAVIPMSCITNGSGANRKPSHTSAVSIAGKETLSSAAKSGTEKKKEKPQGQREKKEESHSNDQSPQIRASPSPQPSSQPLQIHRQTPESKNATPTKSIKRPSPAEKSHNSWENSDDSRNKLSKIPSTPKLIPKVTKTADKHKDVIINQAKMSTRKKNSQVYRRKHQELQAMQMELQSPEYKLSKLRTSTIMTDYNPNYCFAGKTSSISDLKEVPRKNITLIRGLGHGAFGEVYEGQVSGMPNDPSPLQVAVKTLPEVCSEQDELDFLMEALIISKFNHQNIVRCIGVSLQSLPRFILLELMAGGDLKSFLRETRPRPSQPSSLAMLDLLHVARDIACGCQYLEENHFIHRDIAARNCLLTCPGPGRVAKIGDFGMARDIYRASYYRKGGCAMLPVKWMPPEAFMEGIFTSKTDTWSFGVLLWEIFSLGYMPYPSKSNQEVLEFVTSGGRMDPPKNCPGPVYRIMTQCWQHQPEDRPNFAIILERIEYCTQDPDVINTALPIEYGPLVEEEEKVPVRPKDPEGVPPLLVSQQAKREEERSPAAPPPLPTTSSGKAAKKPTAAEVSVRVPRGPAVEGGHVNMAFSQSNPPSELHRVHGSRNKPTSLWNPTYGSWFTEKPTKKNNPIAKKEPHERGNLGLEGSCTVPPNVATGRLPGASLLLEPSSLTANMKEVPLFRLRHFPCGNVNYGYQQQGLPLEAATAPGAGHYEDTILKSKNSMNQPGP", "values": [
      {"measurement": "count of HTRF (phosphorylation of the peptide substrate), 100 uM ATP against no ATP", "value": "increased by about 20 times by the addition of ATP compare to no addition of ATP"}
    ]}
  ]
}
